± gives the standard deviation of the averaged measurements.
Assay: total protein half-life in vivo (active degradation + dilution); higher = more stable protein
[1] = E. coli NCM3722 delta-clpP delta-lon delta-hslV, growth: N-lim chemostat, doubling time 6 h
[2] = E. coli NCM3722 delta-clpP, growth: N-lim chemostat, doubling time 6 h
[3] = E. coli NCM3722 delta-hslV, growth: N-lim chemostat, doubling time 6 h
[4] = E. coli NCM3722 delta-lon, growth: N-lim chemostat, doubling time 6 h
[5] = E. coli NCM3722 delta-smpB, growth: N-lim chemostat, doubling time 6 h
[6] = wild type E. coli NCM3722, growth: C-lim chemostat, doubling time 3 h
[7] = wild type E. coli NCM3722, growth: C-lim chemostat, doubling time 6 h
[8] = wild type E. coli NCM3722, growth: C-lim chemostat, doubling time 12 h
[9] = wild type E. coli NCM3722, growth: N-lim chemostat, doubling time 6 h
[10] = wild type E. coli NCM3722, growth: N-lim chemostat, doubling time 12 h
[11] = wild type E. coli NCM3722, growth: P-lim chemostat, doubling time 6 h
[12] = wild type E. coli NCM3722, growth: P-lim chemostat, doubling time 12 h

Sequence	total protein half-life in vivo [1] [h]	total protein half-life in vivo [2] [h]	total protein half-life in vivo [3] [h]	total protein half-life in vivo [4] [h]	total protein half-life in vivo [5] [h]	total protein half-life in vivo [6] [h]	total protein half-life in vivo [7] [h]	total protein half-life in vivo [8] [h]	total protein half-life in vivo [9] [h]	total protein half-life in vivo [10] [h]	total protein half-life in vivo [11] [h]	total protein half-life in vivo [12] [h]
MEMTSAFTLNVRLDNIAVITIDVPGEKMNTLKAEFASQVRAIIKQLRENKELRGVVFVSAKPDNFIAGADINMIGNCKTAQEAEALARQGQQLMAEIHALPIQVIAAIHGACLGGGLELALACHGRVCTDDPKTVLGLPEVQLGLLPGSGGTQRLPRLIGVSTALEMILTGKQLRAKQALKLGLVDDVVPHSILLEAAVELAKKERPSSRPLPVRERILAGPLGRALLFKMVGKKTEHKTQGNYPATERILEVVETGLAQGTSSGYDAEARAFGELAMTPQSQALRSIFFASTDVKKDPGSDAPPAPLNSVGILGGGLMGGGIAYVTACKAGIPVRIKDINPQGINHALKYSWDQLEGKVRRRHLKASERDKQLALISGTTDYRGFAHRDLIIEAVFENLELKQQMVAEVEQNCAAHTIFASNTSSLPIGDIAAHATRPEQVIGLHFFSPVEKMPLVEIIPHAGTSAQTIATTVKLAKKQGKTPIVVRDKAGFYVNRILAPYINEAIRMLTQGERVEHIDAALVKFGFPVGPIQLLDEVGIDTGTKIIPVLEAAYGERFSAPANVVSSILNDDRKGRKNGRGFYLYGQKGRKSKKQVDPAIYPLIGTQGQGRISAPQVAERCVMLMLNEAVRCVDEQVIRSVRDGDIGAVFGIGFPPFLGGPFRYIDSLGAGEVVAIMQRLATQYGSRFTPCERLVEMGARGESFWKTTATDLQ	6.37 ± 0.25	6.427 ± 0.028	6.27 ± 0.24	6.41 ± 0.81	5.89 ± 0.35	2.94 ± 0.22	6.2 ± 0.16	12 ± 0.15	5.986 ± 0.037	13.5 ± 2.2	6.1 ± 0.18	12.3 ± 0.21
MGNSDRKPGLIKRLWKWWRTPSRLALGTLLLIGFVGGIVFWGGFNTGMEKANTEEFCISCHEMRNTVYQEYMDSVHYNNRSGVRATCPDCHVPHEFVPKMIRKLKASKELYGKIFGVIDTPQKFEAHRLTMAQNEWRRMKDNNSQECRNCHNFEYMDTTAQKSVAAKMHDQAVKDGQTCIDCHKGIAHKLPDMREVEPGF [P0ABL5]		4.79			5.22 ± 1.8		3.97	9.62				8.81
MDKELPWLADNAQLELKYKKGKTPLSHRRWPGEPVSVITGSLIQTLGDELLQKAEKKKNIVWRYENFSLEWQSAITQAINLIGEHKPSIPARTMAALACIAQNDSQQLLDEIVQQEGLEYATEVVIARQFIARCYESDPLVVTLQYQDEDYGYGYRSETYNEFDLRLRKHLSLAEESCWQRCADKLIAALPGINKVRRPFIALILPEKPEIANELVGLECPRTHFHSKEWLKVVANDPTAVRKLEHYWSQDIFSDREASYMSHENHFGYAACAALLREQGLAAIPRLAMYAHKEDCGSLLVQINHPQVIRTLLLVADKNKPSLQRVAKYHKNFPHATLAALAELLALTEPPARPGYPIIEDKKLPAQQKARDEYWRTLLQTLMASQPQLAAEVMPWLSTQPQSVLKSYLSAPPKPVIDGTDNSNLPEILVSPPWRSKKKMTAPRLDLAPLELTPQVYWQPGEQERLAATEPARYFSTESLAQRMEQKSGRVVLQELGFGDDVWLFLNYILPGKLDAARNSLFVQWHYYQGRVEEILNGWNSPEAQLAEQALRSGHIEALINIWENDNYSHYRPEKSVWNLYLLAQLPREMALTFWLRINEKKHLFAGEDYFLSILGLDALPGLLLAFSHRPKETFPLILNFGATELALPVAHVWRRFAAQRDLARQWILQWPEHTASALIPLVFTKPSDNSEAALLALRLLYEQGHGELLQTVANRWQRTDVWSALEQLLKQGPMDIYPARIPKAPDFWHPQMWSRPRLITNNQTVTNDALEIIGEMLRFTQGGRFYSGLEQLKTFCQPQTLAAFAWDLFTAWQQAGAPAKDNWAFLALSLFGDESTARDLTTQILAWPQEGKSARAVSGLNILTLMNNDMALIQLHHISQRAKSRPLRDNAAEFLQVVAENRGLSQEELADRLVPTLGLDDPQALSFDFGPRQFTVRFDENLNPVIFDQQNVRQKSVPRLRADDDQLKAPEALARLKGLKKDATQVSKNLLPRLETALRTTRRWSLADFHSLFVNHPFTRLVTQRLIWGVYPANEPRCLLKAFRVAAEGEFCNAQDEPIDLPADALIGIAHPLEMTAEMRSEFAQLFADYEIMPPFRQLSRRTVLLTPDESTSNSLTRWEGKSATVGQLMGMRYKGWESGYEDAFVYNLGEYRLVLKFSPGFNHYNVDSKALMSFRSLRVYRDNKSVTFAELDVFDLSEALSAPDVIFH	6.38											
MKVLVIGNGGREHALAWKAAQSPLVETVFVAPGNAGTALEPALQNVAIGVTDIPALLDFAQNEKIDLTIVGPEAPLVKGVVDTFRAAGLKIFGPTAGAAQLEGSKAFTKDFLARHKIPTAEYQNFTEVEPALAYLREKGAPIVIKADGLAAGKGVIVAMTLEEAEAAVHDMLAGNAFGDAGHRIVIEEFLDGEEASFIVMVDGEHVLPMATSQDHKRVGDKDTGPNTGGMGAYSPAPVVTDDVHQRTMERIIWPTVKGMAAEGNTYTGFLYAGLMIDKQGNPKVIEFNCRFGDPETQPIMLRMKSDLVELCLAACESKLDEKTSEWDERASLGVVMAAGGYPGDYRTGDVIHGLPLEEVAGGKVFHAGTKLADDEQVVTNGGRVLCVTALGHTVAEAQKRAYALMTDIHWDDCFCRKDIGWRAIEREQN	5.13 ± 0.32	4.89 ± 0.38	4.3 ± 0.28	4.91 ± 0.24	4.44 ± 0.17	3.38 ± 0.24	6.37 ± 0.4	10.5 ± 0.14	4.62 ± 0.25	7.03 ± 0.35	6.097 ± 0.048	12.7 ± 0.7
MAELSDQEMLRYNRQIILRGFDFDGQEALKDSRVLIVGLGGLGCAASQYLASAGVGNLTLLDFDTVSLSNLQRQTLHSDATVGQPKVESARDALTRINPHIAITPVNALLDDAELAALIAEHDLVLDCTDNVAVRNQLNAGCFAAKVPLVSGAAIRMEGQITVFTYQDGEPCYRCLSRLFGENALTCVEAGVMAPLIGVIGSLQAMEAIKMLAGYGKPASGKIVMYDAMTCQFREMKLMRNPGCEVCGQ	5.3 ± 1.4	4.37 ± 0.4	4.1 ± 0.1	6.67 ± 1.7	4.36 ± 0.4	3.03 ± 0.46	6.09 ± 0.5	11.3 ± 0.97	4.66 ± 0.53	9.95	5.7448 ± 0.0056	13.2 ± 1.6
MPLLHLLRQNPVIAAVKDNASLQLAIDSECQFISVLYGNICTISNIVKKIKNAGKYAFIHVDLLEGASNKEVVIQFLKLVTEADGIISTKASMLKAARAEGFFCIHRLFIVDSISFHNIDKQVAQSNPDCIEILPGCMPKVLGWVTEKIRQPLIAGGLVCDEEDARNAINAGVVALSTTNTGVWTLAKKLL					3.74	2.77 ± 0.24	4.77 ± 0.7	12.1 ± 1.7				8.94
MRIGHGFDVHAFGGEGPIIIGGVRIPYEKGLLAHSDGDVALHALTDALLGAAALGDIGKLFPDTDPAFKGADSRELLREAWRRIQAKGYTLGNVDVTIIAQAPKMLPHIPQMRVFIAEDLGCHMDDVNVKATTTEKLGFTGRGEGIACEAVALLIKATK	5.75 ± 0.23	4.63 ± 0.57	4.88 ± 0.23	5 ± 0.85	4.88 ± 0.38	2.872 ± 0.01	6.85 ± 1.3	10.7	4.9 ± 0.24	8.67 ± 0.53	5.806 ± 0.032	12.9 ± 0.45
MSAQVSLELHHRISQFLFHEASLLDDWKFRDWLAQLDEEIRYTMRTTVNAQTRDRRKGVQPPTTWIFNDTKDQLERRIARLETGMAWAEEPPSRTRHLISNCQISETDIPNVFAVRVNYLLYRAQKERDETFYVGTRFDKVRRLEDDNWRLLERDIVLDQAVITSHNLSVLF	> 8					2.05	5.02	8.73			5.1 ± 0.36	9.68 ± 0.98
MNQQDIEQVVKAVLLKMQSSDTPSAAVHEMGVFASLDDAVAAAKVAQQGLKSVAMRQLAIAAIREAGEKHARDLAELAVSETGMGRVEDKFAKNVAQARGTPGVECLSPQVLTGDNGLTLIENAPWGVVASVTPSTNPAATVINNAISLIAAGNSVIFAPHPAAKKVSQRAITLLNQAIVAAGGPENLLVTVANPDIETAQRLFKFPGIGLLVVTGGEAVVEAARKHTNKRLIAAGAGNPPVVVDETADLARAAQSIVKGASFDNNIICADEKVLIVVDSVADELMRLMEGQHAVKLTAEQAQQLQPVLLKNIDERGKGTVSRDWVGRDAGKIAAAIGLKVPQETRLLFVETTAEHPFAVTELMMPVLPVVRVANVADAIALAVKLEGGCHHTAAMHSRNIENMNQMANAIDTSIFVKNGPCIAGLGLGGEGWTTMTITTPTGEGVTSARTFVRLRRCVLVDAFRIV	5.64 ± 1.3											
MPAPVVLILAAGRGECFLASGGNTHKCIGWRQSPEVAPYRWPFEENGRTFDLAIEPQITTNDLRLMLRLALAGGGITIATQETFRPYIESGKLVSLLDDFLPQFPGFYLYFPQRRNIAPKLRALIDYVKEWRQQLA	4.63											
MIRLSEQSPLGTGRHRKCYAHPEDAQRCIKIVYHRGDGGDKEIRRELKYYAHLGRRLKDWSGIPRYHGTVETDCGTGYVYDVIADFDGKPSITLTEFAEQCRYEEDIAQLRQLLKQLKRYLQDNRIVTMSLKPQNILCHRISESEVIPVVCDNIGESTLIPLATWSKWCCLRKQERLWKRFIAQPALAIALQKDLQPRESKTLALTSREA	3.47					3.22	7.68	10.7				
MRRLLSVAPVLLWLITPLAFAQLPGITSQPLPGGGQSWSLPVQTLVFITSLTFIPAILLMMTSFTRIIIVFGLLRNALGTPSAPPNQVLLGLALFLTFFIMSPVIDKIYVDAYQPFSEEKISMQEALEKGAQPLREFMLRQTREADLGLFARLANTGPLQGPEAVPMRILLPAYVTSELKTAFQIGFTIFIPFLIIDLVIASVLMALGMMMVPPATIALPFKLMLFVLVDGWQLLVGSLAQSFYS [P0AC05]						2.76	6.05	9.42				
MQTVIFGRSGCPYCVRAKDLAEKLSNERDDFQYQYVDIRAEGITKEDLQQKAGKPVETVPQIFVDQQHIGGYTDFAAWVKENLDA	5.87	3.94	3.72	4.75 ± 0.46	3.33	2.14	4.99	6.22	3.39	5.49	4.16	7.26 ± 0.75
MQILLANPRGFCAGVDRAISIVENALAIYGAPIYVRHEVVHNRYVVDSLRERGAIFIEQISEVPDGAILIFSAHGVSQAVRNEAKSRDLTVFDATCPLVTKVHMEVARASRRGEESILIGHAGHPEVEGTMGQYSNPEGGMYLVESPDDVWKLTVKNEEKLSFMTQTTLSVDDTSDVIDALRKRFPKIVGPRKDDICYATTNRQEAVRALAEQAEVVLVVGSKNSSNSNRLAELAQRMGKRAFLIDDAKDIQEEWVKEVKCVGVTAGASAPDILVQNVVARLQQLGGGEAIPLEGREENIVFEVPKELRVDIREVD	5.14 ± 0.44	3.68 ± 0.91	2.78 ± 0.23	3.1 ± 0.29	2.44 ± 0.24	2.5 ± 0.044	3.72 ± 0.34	5.14 ± 0.29	2.69 ± 0.3	3.69 ± 0.062	2.89 ± 0.034	5.25 ± 0.3
MTFIKGLPLMLLTISLGCNAAVQPDRTRIVFNANDKATSLRIENQSDKLPYLAYSWIENEKGEKSDALLVALPPIQRLEPKATSQVRVVKQASTTQLPGDRETLFFYNMREIPPAPDKSSDHAILQVAIQSRIKLFWRPAALRKKAGEKVELQLQVSQQGNQLTLKNPTAYYLTIAYLGRNEKGVLPGFKTVMVAPFSTVNTNTGSYSGSQFYLGYMDDYGALRMTTLNCSGQCRLQAVEAK	> 8									14.3		

Reference: the supplement of paper PMC11246515
